{
  "source": "patent US8362216B2",
  "about": "“Method of detection using antibodies that specifically bind hedgehog-derived polypeptides” (The Johns Hopkins University School of Medicine, priority 1994, dated 2013)",
  "key": {"[1]": {"system": "neural and cement gland marker gene expression", "assay": "Xenopus animal (blastula) cap explants / Keller sandwiches from RNA-injected embryos, RT-PCR of marker genes", "type": "cell-based", "experimental": "cDNAs encoding full-length Xenopus hedgehogs, or encoding amino terminal or carboxy terminal domains linked to secretory leader sequences were transcribed in vitro to yield translatable messenger RNA. The synthetic messenger RNAs, and control mRNAs, were microinjected into the animal poles of cleavage stage Xenopus embryos, which were allowed to develop to the blastula stage, at which time the animal cap explants were prepared from the upper one fourth of the embryo. These blastula cap explants were then cultured in vitro in physiological saline in the presence or absence of the transforming growth factor beta family member, recombinant human activin A. All explants were allowed to develop until control embryos had grown to neurula stage, or to tadpole stage. Importantly, blastula caps left untreated differentiate from ectoderm into atypical epidermis. Blastula caps treated with activin differentiate into mesodermal and neural cell types. Thus, the question was whether hedgehog, or its proteolytic derivatives, would change the differentiation of cells away from becoming epidermis, and into another cell type. A second question was whether hedgehog can work with activin to alter the normal response of the tissue to either factor by itself.\nExplants were then extracted to yield mRNA by methods commonly used by those of skill in the art, which was used as template with reverse transcriptase to yield cDNA. The cDNA was then used as template with various sets of primers for PCR for specific genes, reverse-trahscriptase-polymerase chain reaction, or RT-PCR. […] Thus, the darker bands correspond to a greater level of the specific mRNA.\n(A) Isolation of dorsal explants from injected embryos for the preparation of Keller sandwiches (Keller and Danilchik, 1988; Doniach, et al, 1992; redrawn from Doniach, 1993). (B) Keller sandwiches were made from uninjected (lanes 1 and 2) and X-bhh-injected (lanes 3 and 4) embroys, total RNA was isolated when control embryos reached stage 20, and RT-PCR was used to analyze the expression of XAG-1 and neural markers. XAG-1 is a cement gland marker, XANF-2 is an anterior pituitary marker, Otx-A is a forebrain marker, En-2 demarcates the midbrain-hindbrain boundary, Krox-20 marks rhombomeres 3 and 5 of the hindbrain and X/Hbox-6 is a spinal cord marker. N-CAM is a general neural marker whose expression is not restricted along the anteroposterior axis. […] Note that expression of XAG-1 and anterior neural markers is stimulated by X-bhh treatment, whereas expression of posterior neural markers is suppressed."}, "[2]": {"target": "T1, in-vitro translated Hh protein (Drosophila melanogaster, UniProt Q02936)", "T1 construct": "The full length form of the hh protein (F) migrates with a mobility corresponding to a relative molecular mass of 46 kD; made in house; host or cells: cell-free: TNT coupled transcription-translation system (Promega)", "T1 sequence (Q02936 1-471)": "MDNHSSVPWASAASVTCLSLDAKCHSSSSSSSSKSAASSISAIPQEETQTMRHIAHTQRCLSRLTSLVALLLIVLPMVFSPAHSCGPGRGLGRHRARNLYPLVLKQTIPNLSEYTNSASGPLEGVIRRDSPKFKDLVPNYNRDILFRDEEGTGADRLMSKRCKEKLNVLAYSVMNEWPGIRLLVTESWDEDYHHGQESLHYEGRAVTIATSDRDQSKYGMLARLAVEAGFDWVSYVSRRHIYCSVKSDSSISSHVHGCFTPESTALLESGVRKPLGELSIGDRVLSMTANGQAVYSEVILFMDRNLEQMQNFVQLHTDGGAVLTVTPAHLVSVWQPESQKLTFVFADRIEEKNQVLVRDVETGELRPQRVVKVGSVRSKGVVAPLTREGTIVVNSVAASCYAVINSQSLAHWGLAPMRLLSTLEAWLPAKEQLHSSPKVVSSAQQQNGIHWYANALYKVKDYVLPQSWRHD", "assay": "Proteinase inhibitor studies on auto-proteolysis of in vitro translated Hh protein", "type": "biochemical", "settings": "inhibitor added to translation reaction", "experimental": "In some cases the effectiveness of an inhibitor was assayed by determining if addition of an inhibitor to a completed translation reaction will inhibit the self-processing that normally continues to occur."}, "[3]": {"assay": "Solubility and proteolytic stability of purified Hh carboxy-terminal fragments", "type": "physicochemical", "settings": "purified protein", "experimental": "Protein expression and purification: Drosophila melanogaster Hh protein in which most of the amino-terminai signaling domain and signal sequence have been replaced by a hexa-histidine tag (His6Hh-C25) was expressed as previously described (Porter et al., 1995). SeMet His6Hh-C25 was prepared by expression in E. coli strain B834 (DE3) pLysS, a methionine auxotroph, and growth in minimal media as previously described (Leahy et al., 1994). This His6-taggcd protein was purified on a Ni^++-NTA agarose column and autocleavage stimulated by addition of 50 mM DTT. After removal of the DTT by dialysis, the cleaved protein was passed over a Ni^++-NTA agarose column and the Hh carboxy-terminal domain, Hh-C25, collected in the column run through. Hh-C25 was subjected to limited proteolysis by overnight incubation with 1:500 (w:w) subtilisin (Boehringer Mannheim) at 4° C. A protease-stable fragment of approximately 17 kDa, Hh-C17, was identified by SDS-PAGE and purified by anion-exchange chromatography utilizing a Mono-Q column (Pharmacia). The amino- and carboxy-terminal residues of Hh-C17 were determined to be Cys-258 and Ser-408, respectively, by mass spectral analysis of cyanogen bromide-cleaved fragments. Mass spectral analysis was performed as previously described (Porter et al., 1996a).\nDrosophila melanogaster Hh in which the signal sequence and most of the amino-terminal signaling domain have been replaced by a hexahistidine tag was expressed in E. coli as previously described (Porter et al., 1995). Following purification with Ni^++-NTA agarose, this protein cleaves itself in vitro in the presence of either DTT or cholesterol to liberate the 25 kDa Hh-C fragment (Hh-C25, residues Cys-258 to Asp-471). […] All residues absolutely conserved in Hh-C homologues (Porter et al., 1996a), including the nematode sequences, are contained in Hh-C17. To determine if Hh-C17 retained autoprocessing activity, a mutant version of His-tagged Hh-C containing a termination codon at residue position 409 (His6Hh-C17) was expressed and assayed for autocleavage in the presence of DTT and cholesterol."}, "auto-proteolysis": {"system": "auto-proteolysis", "assay": "In vitro translation of wild-type and mutant Hh proteins (mapping of auto-proteolysis)", "type": "biochemical, Drosophila; zebrafish"}},
  "data": [
    {"molecule": "prolactin [reference compound]", "values": [
      {"measurement": "Induction of pituitary gene XANF1B", "setting": "[1]", "value": "does not lead to this elevated level of pituitary gene"}
    ]},
    {"molecule": "CC(=O)N[C@@H](CC(C)C)C(=O)N[C@@H](CC(C)C)C(=O)N[C@H](C=O)CCCNC(=N)N", "note": "[leupeptin]", "values": [
      {"measurement": "Inhibition of auto-proteolysis of in-vitro translated Hh protein", "setting": "[2]", "value": "do not block"}
    ]},
    {"molecule": "a, anti-trypsin: proteinase inhibitor, probably α1-antitrypsin", "values": [
      {"measurement": "Inhibition of auto-proteolysis of in-vitro translated Hh protein", "setting": "[2]", "value": "do not block"}
    ]},
    {"molecule": "CC(C)C[C@H](NC(=O)[C@H]1O[C@@H]1C(=O)O)C(=O)NCCCCN=C(N)N", "note": "[E-64]", "values": [
      {"measurement": "Inhibition of auto-proteolysis of in-vitro translated Hh protein", "setting": "[2]", "value": "do not block"}
    ]},
    {"molecule": "Hh-C17: ~17 kDa subtilisin-stable fragment of Hh-C25, residues Cys-258 to Ser-408", "values": [
      {"measurement": "Solubility", "setting": "[3]", "value": "improved solubility"},
      {"measurement": "Stability to proteolysis", "setting": "[3]", "value": "protease-stable"}
    ]},
    {"molecule": "soybean trypsin inhibitor: proteinase inhibitor (protein, UniProt P01070 25-205, looked up) Trypsin inhibitor A: DFVLDNEGNPLENGGTYYILSDITAFGGIRAAPTGNERCPLTVVQSRNELDKGIGTIISSPYRIRFIAEGHPLSLKFDSFAVIMLCVGIPTEWSVVEDLPEGPAVKIGENKDAMDGWFRLERVSDDEFNNYKLVFCPQQAEDDKCGDIGISIDHDDGTRRLVVSKNKPLVVQFQKLDKESL", "values": [
      {"measurement": "Inhibition of auto-proteolysis of in-vitro translated Hh protein", "setting": "[2]", "value": "do not block"}
    ]},
    {"molecule": "H273A: zebrafish twhh protein with H273A mutation (protein, UniProt Q90419 27-416, looked up, variant H273A) Tiggy-winkle hedgehog protein: CGPGRGYGKRRHPKKLTPLAYKQFIPNVAEKTLGASGKYEGKITRNSERFKELIPNYNPDIIFKDEENTNADRLMTKRCKDKLNSLAISVMNHWPGVKLRVTEGWDEDGHHLEESLHYEGRAVDITTSDRDKSKYGMLSRLAVEAGFDWVYYESKAHIHCSVKAENSVAAKSGGCFPGSGTVTLGDGTRKPIKDLKVGDRVLAADEKGNVLISDFIMFIDHDPTTRRQFIVIETSEPFTKLTLTAAALVFVGNSSAASGITATFASNVKPGDTVLVWEDTCESLKSVTVKRIYTEEHEGSFAPVTAHGTIIVDQVLASCYAVIENHKWAHWAFAPVRLCHKLMTWLFPARESNVNFQEDGIHWYSNMLFHIGSWLLDRDSFHPLGILHLS", "values": [
      {"measurement": "Auto-proteolysis (processing) of in vitro translated protein", "setting": "auto-proteolysis", "value": "blocked"}
    ]},
    {"molecule": "H270A: zebrafish shh protein with H270A mutation (protein, UniProt Q92008 24-418, looked up, variant H270A) Sonic hedgehog protein: CGPGRGYGRRRHPKKLTPLAYKQFIPNVAEKTLGASGRYEGKITRNSERFKELTPNYNPDIIFKDEENTGADRLMTQRCKDKLNSLAISVMNHWPGVKLRVTEGWDEDGHHFEESLHYEGRAVDITTSDRDKSKYGTLSRLAVEAGFDWVYYESKAHIHCSVKAENSVAAKSGGCFPGSALVSLQDGGQKAVKDLNPGDKVLAADSAGNLVFSDFIMFTDRDSTTRRVFYVIETQEPVEKITLTAAALLFVLDNSTEDLHTMTAAYASSVRAGQKVMVVDDSGQLKSVIVQRIYTEEQRGSFAPVTAHGTIVVDRILASCYAVIEDQGLAHLAFAPARLYYYVSSFLFPQNSSSRSNATLQQEGVHWYSRLLYQMGTWLLDSNMLHPLGMSVNSS", "values": [
      {"measurement": "Auto-proteolysis (processing) of in vitro translated protein", "setting": "auto-proteolysis", "value": "blocked"}
    ]},
    {"molecule": "activin: recombinant human activin A, transforming growth factor beta family member (protein, UniProt P08476 311-426, looked up) Inhibin beta A chain: GLECDGKVNICCKKQFFVSFKDIGWNDWIIAPSGYHANYCEGECPSHIAGTSGSSLSFHSTVINHYRMRGHSPFANLKSCCVPTKLRPMSMLYYDDGQNIIKKDIQNMIVEECGCS", "values": [
      {"measurement": "Induction of pituitary gene XANF1B", "setting": "[1]", "value": "also express the pituitary gene"}
    ]},
    {"molecule": "noggin: independent neural inducer (protein, UniProt P49011 20-222, looked up) Noggin: RIDQGGCQHYLHIRPAPSENLPLVDLIEHPDPIYDPKEKDLNETLLRTLMVGHFDPNFMATILPEERLGVEDLGELDLLLRQKPSGAMPAEIKGLEFYEGLQSKKHRLSKKLRRKLQMWLWSQTFCPVLYTWNDLGTRFWPRYVKVGSCYSKRSCSVPEGMVCKAAKSMHLTILRWRCQRRVQQKCAWITIQYPVISECKCSC", "values": [
      {"measurement": "Induction of general neural gene NCAM", "setting": "[1]", "value": "induces the general neural gene, NCAM"},
      {"measurement": "Induction of pituitary gene XANF1B", "setting": "[1]", "value": "able to induce pituitary gene and forebrain gene"}
    ]},
    {"molecule": "Hh-C25: 25 kDa Drosophila Hh-C fragment, residues Cys-258 to Asp-471 (protein) CFTPESTALLESGVRKPLGELSIGDRVLSMTANGQAVYSEVILFMDRNLEQMQNFVQLHTDGGAVLTVTPAHLVSVWQPESQKLTFVFADRIEEKNQVLVRDVETGELRPQRVVKVGSVRSKGVVAPLTREGTIVVNSVAASCYAVINSQSLAHWGLAPMRLLSTLEAWLPAKEQLHSSPKVVSSAQQQNGIHWYANALYKVKDYVLPQSWRHD", "values": [
      {"measurement": "Solubility", "setting": "[3]", "value": "poorly soluble in the absence of detergents"},
      {"measurement": "Stability to proteolysis", "setting": "[3]", "value": "susceptible to further proteolytic breakdown when concentrated to 1 mg/ml or greater"}
    ]}
  ]
}
